Earlier results in PMC9106955.

Target: GLP-1R N-terminal domain (UniProt P43220)
Chain of UniProt P43220 (P43220 24-145): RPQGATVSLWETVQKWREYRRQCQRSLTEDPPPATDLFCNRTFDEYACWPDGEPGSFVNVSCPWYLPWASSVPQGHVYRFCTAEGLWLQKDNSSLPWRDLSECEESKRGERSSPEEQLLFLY

Substance: Exendin-4 (from UniProt P26349)
- Kd: 6 nM
